Assay results from patent US20230265179A1 (TWIST BIOSCIENCE, published 2023).

T1: IL1RL1 (UniProt Q01638 19-328, limits assumed)
T1 construct: SPR analyte
T1 sequence (looked up): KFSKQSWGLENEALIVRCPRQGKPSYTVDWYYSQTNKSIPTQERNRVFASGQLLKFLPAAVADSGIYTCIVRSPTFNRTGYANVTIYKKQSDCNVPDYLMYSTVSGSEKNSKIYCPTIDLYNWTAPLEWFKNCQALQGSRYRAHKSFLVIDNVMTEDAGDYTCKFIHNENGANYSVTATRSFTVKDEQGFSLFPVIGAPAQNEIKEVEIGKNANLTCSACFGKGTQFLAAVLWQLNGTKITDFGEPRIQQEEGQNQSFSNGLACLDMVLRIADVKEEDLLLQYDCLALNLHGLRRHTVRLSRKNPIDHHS

T2: IL1RL1 over-expressed on Expi293 cells (UniProt Q01638 19-556, limits assumed)
T2 construct: whole, on cells; Target of the flow cytometry MFI ratio (over-expressing cells over parent cells); also called cytokine over-expressing Expi293 cells
T2 sequence (looked up): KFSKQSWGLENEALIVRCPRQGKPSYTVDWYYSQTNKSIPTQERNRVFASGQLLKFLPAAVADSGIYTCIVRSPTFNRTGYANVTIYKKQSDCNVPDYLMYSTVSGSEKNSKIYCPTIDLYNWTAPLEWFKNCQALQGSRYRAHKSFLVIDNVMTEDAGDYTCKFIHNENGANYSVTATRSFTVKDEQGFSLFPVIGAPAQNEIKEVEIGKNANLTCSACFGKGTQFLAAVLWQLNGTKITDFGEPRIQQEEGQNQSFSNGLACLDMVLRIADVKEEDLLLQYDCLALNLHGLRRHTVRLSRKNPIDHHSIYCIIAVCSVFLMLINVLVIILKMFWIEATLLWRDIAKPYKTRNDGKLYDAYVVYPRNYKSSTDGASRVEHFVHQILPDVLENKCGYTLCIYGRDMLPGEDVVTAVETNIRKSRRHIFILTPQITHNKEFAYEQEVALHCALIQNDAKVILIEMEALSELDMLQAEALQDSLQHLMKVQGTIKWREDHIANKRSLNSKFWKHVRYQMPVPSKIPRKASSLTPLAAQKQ

T3: IL1RL1 (UniProt Q01638 19-556, limits assumed)
T3 construct: whole, on cells; The flow cytometry used 'cytokine over-expressing Expi293 cells' against Expi293 parent cells
T3 sequence (looked up): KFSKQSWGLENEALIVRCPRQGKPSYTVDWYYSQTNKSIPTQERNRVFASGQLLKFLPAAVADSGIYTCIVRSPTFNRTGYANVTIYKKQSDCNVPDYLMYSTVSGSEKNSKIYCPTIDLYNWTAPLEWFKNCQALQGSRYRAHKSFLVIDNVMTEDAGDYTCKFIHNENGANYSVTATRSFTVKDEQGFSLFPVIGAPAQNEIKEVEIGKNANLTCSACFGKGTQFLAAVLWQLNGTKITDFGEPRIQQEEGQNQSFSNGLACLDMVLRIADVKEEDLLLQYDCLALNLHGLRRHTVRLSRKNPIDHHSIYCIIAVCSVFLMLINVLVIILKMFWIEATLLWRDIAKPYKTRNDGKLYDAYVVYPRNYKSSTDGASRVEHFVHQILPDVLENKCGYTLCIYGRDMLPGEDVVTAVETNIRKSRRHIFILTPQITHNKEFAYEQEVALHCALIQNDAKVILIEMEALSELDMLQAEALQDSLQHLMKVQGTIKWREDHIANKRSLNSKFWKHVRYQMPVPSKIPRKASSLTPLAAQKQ

T4: IL1RL2 (UniProt Q9HB29 20-335, limits assumed)
T4 construct: Soluble analyte of the SPR runs
T4 sequence (looked up): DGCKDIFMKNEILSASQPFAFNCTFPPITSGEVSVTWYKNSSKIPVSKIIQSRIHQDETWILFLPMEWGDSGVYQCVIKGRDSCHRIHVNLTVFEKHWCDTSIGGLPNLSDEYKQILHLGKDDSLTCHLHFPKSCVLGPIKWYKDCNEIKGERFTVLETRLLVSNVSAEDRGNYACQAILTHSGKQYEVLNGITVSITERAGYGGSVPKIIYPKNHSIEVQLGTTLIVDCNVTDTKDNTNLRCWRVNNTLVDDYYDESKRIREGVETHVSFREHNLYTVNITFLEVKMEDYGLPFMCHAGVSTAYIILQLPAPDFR

T5: IL1RL2 over-expressed on Expi293 cells (UniProt Q9HB29 20-575, limits assumed)
T5 construct: whole, on cells; Target of the flow cytometry assay; MFI ratio is over-expressing cells over parent cells
T5 sequence (looked up): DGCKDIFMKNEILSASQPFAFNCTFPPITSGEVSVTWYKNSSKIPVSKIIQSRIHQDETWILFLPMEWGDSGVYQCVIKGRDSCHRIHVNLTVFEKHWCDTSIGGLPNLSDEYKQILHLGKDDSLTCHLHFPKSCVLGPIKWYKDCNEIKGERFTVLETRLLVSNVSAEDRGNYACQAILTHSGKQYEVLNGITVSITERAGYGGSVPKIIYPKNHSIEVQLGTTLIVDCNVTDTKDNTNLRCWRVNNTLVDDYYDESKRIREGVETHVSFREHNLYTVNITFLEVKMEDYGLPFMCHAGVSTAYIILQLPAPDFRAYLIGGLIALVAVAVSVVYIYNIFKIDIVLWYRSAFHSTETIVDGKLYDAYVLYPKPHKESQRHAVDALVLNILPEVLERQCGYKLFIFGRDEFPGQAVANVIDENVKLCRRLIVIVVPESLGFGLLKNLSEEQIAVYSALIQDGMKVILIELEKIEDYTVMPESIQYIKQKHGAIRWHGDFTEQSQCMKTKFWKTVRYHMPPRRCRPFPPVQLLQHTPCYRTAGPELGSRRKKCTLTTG


Tests used:
IL1RL1 [1] = molecular target: T1, IL1RL1; assay: SPR (Carterra LSA), antibody amine-coupled
Method: (§1) SPR experiments were performed on a Carterra LSA SPR biosensor equipped with a HC30M chip at 25° C. in HBS-TE. Antibodies were diluted to 10 μg/mL and amine-coupled to the sensor chip by EDC/NHS activation, followed by ethanolamine HCl quenching. Increasing concentrations of analyte were flowed over the sensor chip in HBS-TE with 0.5 mg/mL BSA with 5-minute association and 15-minute dissociation. Following each injection cycle the surface was regenerated with 2× 30-second injections of IgG elution buffer (Thermo). Data were analyzed in Carterra's Kinetics Tool software with 1:1 binding model.

[2] = molecular target: T2, IL1RL1 over-expressed on Expi293 cells; assay: flow cytometry, 100 nM antibody, over-expressing Expi293 / parent cells
Method: (§2) All incubations and washes were in buffer containing PBS+1% BSA. MFI Ratio is defined by the mean fluorescence intensity (MFI) of the cytokine over-expressing Expi293 cell over the Expi293 parent cell. […] EC50 was calculated in GraphPad Prism.

IL1RL1 [3] = molecular target: T3, IL1RL1; assay: flow cytometry, 100 nM IgG on IL1RL1 over-expressing Expi293 cells; MFI over that of Expi293 parent cells
Method: as §2

IL1RL2 = molecular target: T4, IL1RL2; assay: SPR (Carterra LSA), antibody immobilised, 1:1 model
Method: as §1

[4] = molecular target: T5, IL1RL2 over-expressed on Expi293 cells; assay: flow cytometry titration on over-expressing Expi293 cells
Method: as §2

[5] = molecular target: T5, IL1RL2 over-expressed on Expi293 cells; assay: flow cytometry, over-expressing Expi293 vs parent cells, 100 nM antibody;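 further: ratio is mean fluorescence intensity on over-expressing Expi293 cells divided by that measured on parental Expi293 cells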
Method: as §2

Binder	binding result (IL1RL1 [1])	100 nM FACS (MFI Ratio) [2] [MFI ratio]	100 nM FACS (MFI Ratio) (IL1RL1 [3]) [MFI ratio]	Kd (IL1RL2) [nM]	koff (IL1RL2) [s⁻¹]	kon (IL1RL2) [M⁻¹ s⁻¹]	EC50 [4] [nM]	100 nM FACS (MFI Ratio) [5]
IL1RL1-48 (Fc fusion, not shown: a dimerising Fc or GST, VHH-Fc on IgG2 Fc) VHH: EVQLVESGGGLVQPGGSLRLSCAASGTTFSSDVMGWFRQAPGKERELVAVIIDSRTTKYADSVKGRFTISADNSKNTAYLQMNSLKPEDTAVYYCAAVGGATTVTASEWDWGQGTLVTVSS	no binding	1.06	–	–	–	–	–	–
IL1RL1-375 (antibody, V domains shown) VH: EVQLLESGGGLVQPGGSLRLSCAASGFAFSSYAMSWVRQAPGKGLELVSAISGSGDTSYYADSVKGRFTISRDNSKNTLYLQMNSLRAEDTAVYYCARVRRWSNFDYWGQGTLVTVSS VL: DIQMTQSPSSLSASVGDRVTITCRASQSISRYLSWYQQKPGKAPKLLIYAGSKLQRGVPSRFSGSGSGTDFTLTISSLQPEDFATYYCQQTYSTPIAFGGGTKVEIK	–	–	11.3	–	–	–	–	–
IL1RL1-377 (antibody, V domains shown) VH: EVQLLESGGGLVRPGGSLRLSCAASGFTFRNFAMSWVRQAPGKGLEWVSSISGSGDTTYYADSVKGRFTISRDNSKNTLYLQMNSLRAEDTAVYYCARHKRGRVAVAFPMDVWGQGTLVTVSS VL: DIQMTQSPSSLSASVGDRVTITCRASQNIGRYLNWYQQKPGKAPKLLIYGASTLQRGVPSRFSGSGSGTDFTLTISSLQPEDFATYYCQQSYSAPTFGGGTKVEIK	–	–	1.21	–	–	–	–	–
IL1RL1-380 (antibody, V domains shown) VH: EVQLLESGGGLVQPGGPLRLSCAASGFSFSKFAMSWVRQAPGKGLEWVSGISGSGGNTYYADSVKGRFTISRDNSKNTLYLQMNSLRAEDTAVYYCVKGSRGSYRSSTLGPFKHWGQGTLVTVSS VL: DIQMTQSPSSLSASVGDRVTITCRTSQSISTYLNWYQQKPGKAPKLLIYAASRLQNGVPSRFSGSGSGTDFTLTISSLQPEDFATYYCQQSYSVPGTFGGGTKVEIK	–	–	0.6	–	–	–	–	–
IL1RL1-381 (antibody, V domains shown) VH: EVQLLESGGGLVQPGGSLRLSCAASGFTSSNYAMTWVRQAPGKGLEWVSSIIGSGGGTYYADSVKGRFTISRDNSKNTLYLQMNSLRAEDTAVYYCARGIPRRKKGAGLFDYWGQGTLVTVSS VL: DIQMTQSPSSLSASVGDRVTITCRASHSISSHLNWYQQKPGKAPKLLIYGASRLQRGVPSRFSGSGSGTDFTLTISSLQPEDFATYYCQQNYNTPFTFGGGTKVEIK	–	–	0.85	–	–	–	–	–
IL1RL1-385 (antibody, V domains shown) VH: EVQLLESGGGLVQPGGSLRLSCAASGFTFNTFAMSWVRQAPGKGLELVSAISGSGGNTYYVDSVKGRFTISRDNSKNTLYLQMNSLRAEDTAVYYCARLGSGSSSSIDYWGQGTLVTVSS VL: DIQMTQSPSSLSASVGDRVTITCRASQYISTFLNWYQQKPGKAPKLLIYAASRLQDGVPSRFSGSGSGTDFTLTISSLQPEDFATYYCQQSYGSSWTFGGGTKVEIK	–	–	7.61	–	–	–	–	–
IL1RL1-387 (antibody, V domains shown) VH: EVQLLESGGGLVQPGGSLRLSCAASGFTFNRYAMNWVRQAPGKGLEWVSTISASGGRTYYADSVKGRFTISRDNSKNTLYLQMNSLRAEDTAVYYCARGSLRLDTWGQGTLVTVSS VL: DIQMTQSPSSLSASVGDRVTITCRASQNIASYLNWYQQKPGKAPKLLIYGASRLQSGVPSRFSGSGSGTDFTLTISSLQPEDFATYYCQQSSTPRTFGGGTKVEIK	–	–	1.06	–	–	–	–	–
IL1RL1-388 (antibody, V domains shown) VH: EVQLLESGGGLVQPGGSLRLSCAASGFTFSRFAMSWVRQAPGKGLEWVSGISGSSGNTYYADSVKGRFTISRDNSKNTLYLQMNSLRAEDTAVYYCAREKRLPIRRRSGEPLGNYFDYWGQGTLVTVSS VL: DIQMTQSPSSLSASVGDRVTITCRTSQSIRKYLNWYQQKPGKAPKLLIYASSRLQSGVPSRFSGSGSGTDFTLTISSLQPEDFATYYCQQNYRTPFTFGGGTKVEIK	–	–	0.73	–	–	–	–	–
IL1RL2-17 (VHH, VHH-Fc based on IgG2 Fc) VHH: EVQLVESGGGLVQPGGSLRLSCAASGRTFSTYDMGWFRQAPGKERELVASITFGGDTNYADSVKGRFTISADNSKNTAYLQMNSLKPEDTAVYYCADVNGDWGQGTLVTVSS	–	–	–	1.45	0.00024	166000	11.2	15.6
IL1RL2-5 (VHH, VHH-Fc based on IgG2 Fc) VHH: EVQLVESGGGLVQPGGSLRLSCAASGRTFDSYDMGWFRQAPGKERELVASITYLGRTNYADSVKGRFTISADNSKNTAYLQMNSLKPEDTAVYYCADVNGDWGQGTLVTVSS	–	–	–	2.72	0.000343	126000	13.4	13.9
IL1RL2-15 (VHH, VHH-Fc based on IgG2 Fc) VHH: EVQLVESGGGLVQPGGSLRLSCAASGRTFSTYDMGWFRQAPGKEREFVAVINYRGSTTYADSVKGRFTISADNSKNTAYLQMNSLKPEDTAVYYCADVNGDWGQGTLVTVSS	–	–	–	4.13	0.000218	52700	0.622	14.4
IL1RL2-22 (VHH, VHH-Fc based on IgG2 Fc) VHH: EVQLVESGGGLVQPGGSLRLSCAASGRTFGSYAMGWFRQAPGKEREFVAAINWSGARTYYADSVKGRFTISADNSKNTAYLQMNSLKPEDTAVYYCAVSQPLNYYTYYDARRYDWGQGTLVTVSS	–	–	–	3.59	0.000126	35000	3.02	15.4
IL1RL2-12 (VHH, VHH-Fc based on IgG2 Fc) VHH: EVQLVESGGGLVQPGGSLRLSCAASGPMSSSAVMGWFRQAPGKEREFVAVVTRWSGARTVYADSVKGRFTISADNSKNTAYLQMNSLKPEDTAVYYCAVSQPLNYYTYYDPRRYDWGQGTLVTVSS	–	–	–	12.1	0.000485	40200	0.528	33.8
IL1RL2-35 (VHH, VHH-Fc based on IgG2 Fc) VHH: EVQLVESGGGLVQPGGSLRLSCAASGRTFSTYDMGWFRQAPGKEREFVAAISWSGGSTNYADSVKGRFTISADNSKNTAYLQMNSLKPEDTAVYYCADVNGDWGQGTLVTVSS	–	–	–	4.74	0.000593	125000	0.508	15.6
IL1RL2-20 (VHH, VHH-Fc based on IgG2 Fc) VHH: EVQLVESGGGLVQPGGSLRLSCAASGRTGSTYDMGWFRQAPGKERELVAAISWRGGSTYYADSVKGRFTISADNSKNTAYLQMNSLKPEDTAVYYCADVNGDWGQGTLVTVSS	–	–	–	3.28	0.000363	111000	9.03	11.6
IL1RL2-27 (VHH, VHH-Fc based on IgG2 Fc) VHH: EVQLVESGGGLVQPGGSLRLSCAASGGRFSTYDMGWFRQAPGKEREFVASIVWIGGRTYYADSVKGRFTISADNSKNTAYLQMNSLKPEDTAVYYCADVNGDWGQGTLVTVSS	–	–	–	1.32	0.000143	108000	64.2	14
